{"source": "patent US20150359847A1", "about": "“METHOD AND COMPOSITION FOR CONFERRING NEUROPROTECTION” (BLOOD SYSTEMS RESEARCH INSTITUTE, priority 2014, published 2015)", "molecules": {"B1": {"name": "TIMP3: Recombinant tissue inhibitor of matrix metalloproteinase-3, a soluble protein released by MSCs, obtained from Amgen Inc. (protein)", "chain": "CTCSPSHPQDAFCNSDIVIRAKVVGKKLVKEGPFGTLVYTIKQMKMYRGFTKMPHVQYIHTEASESLCGLKLEVNKYQYLLTGRVYDGKMYTGLCNFVERWDQLTLSQRKGLNYRYHLGCNCKIKSCYYLPCFVTSKNECLWTDMLSNFGYPGYQSKHYACIRQKGGYCSWYRGWAPPDKSIINATDP"}}, "key": {"[1]": {"test_system": "NeuN+ve hilar neurons of the dentate gyrus", "test": "NeuN staining of hilar neurons of the dentate gyrus 7 days post-TBI", "type": "in vivo, mouse", "description": "The mouse controlled cortical impact (CCI) injury model was used as previously described. In brief, mice were anesthetized with 5% isoflurane and 1:1 O2:N2 mixture. Animals were mounted on a stereotaxic frame and were secured by ear bars and an incisor bar. Anesthesia was maintained with 2.0% isoflurane and 1:1 O2:N2 mixture. A 5-mm-diameter craniotomy was made midway between bregma and lambda on the right side, with the medial edge of the craniotomy 1 mm lateral to midline. Injury was produced using a magnetic impactor mounted at an angle of 110° from the vertical plane. A single impact at a velocity of 4+/−0.2 m/s was used inflict a moderate to severe injury (1.2-1.3 mm impact depth). After injury, the incision was closed. Sham animals underwent identical surgeries except for impact injury. Core body temperature was monitored using a rectal thermometer and maintained at 36.8° C.-37.2° C. with a heating pad throughout the procedure. For treatments, TIMP3 (60.0 μg/kg) or vehicle control (PBS) administration was performed at 2, 24, and 48 hrs after injury via tail vein injections in a total volume of 125 μl. Animal research was performed with approval of the Institutional Animal Care and Use Committee at ISIS Services LLC (San Carlos, Calif., USA). […]"}, "[2]": {"test_system": "S6 Ribosomal Protein (S235/236) in SH-SY5Y cells", "test": "S6 Ribosomal Protein (S235/236) phosphorylation in SH-SY5Y cells", "type": "cell-based, human", "conditions": "1 μg/ml TIMP3, 15 mins", "protocol": "(§1) SH-SY5Y cells were obtained from ATCC (Cat# CRL-2266, Manassas, Va.) and were cultured in DMEM and 10% FBS up to passage 10. For differentiation of SH-SY5Y cells into a neuronal phenotype, cells were first plated in DMEEM+10% FBS for 24 hrs before exchanging media in DMEM+1% FBS 10 μM retinoic acid. Differentiation was performed for 3 days before experimentation. Hippocampal neurons were prepared according to the protocol by Beaudoin et al. (Nature Protocols 2012; 7(9):1741-1754) with minor modifications. In brief, after trypsin digestion of hippocampi isolated from P1 mouse pups single cell suspensions was created by trituration and plated onto Biocoat™ poly-D-lysine coated 12-well plates (Cat#354470, BD Biosciences, San Jose, Calif.). 2 pups were used per well and cell suspensions were incubated for 10 minutes per well for a total of 6 wells. The serial incubation allowed for variation in cell densities applicable to different experiments but also contributed to the reduction in non-neuronal cells. […]\n(§2) Pathscan Antibody™ array kits were purchased from Cell Signaling Technologies (Danvers, Mass.). PathScan® RTK signaling antibody array kit (Fluorescent Readout, Cat#7949) and PathScan™ Akt signaling antibody array kit (Fluorescent Readout, Cat#9700) were performed as per manufacturer's instructions. Imaging was performed on a LI-COR Odyssey™ infrared scanner and pixel densities measured by in house LI-COR Image™ suite software.\nCell lysates for western blotting were prepared with RIPA buffer (Cat#89900. Thermofisher Scientific, Rockford, Ill.) supplemented with phosphatase inhibitor cocktail 2 (Cat# P5726. Sigma, St Louis, Mo.), phosphatase inhibitor cocktail 3 (Cat# P0044. Sigma, St Louis, Mo.) and complete protease inhibitor (Cat#1862209. Thermofisher Scientific, Rockford, Ill.). […] Protein content was quantified with a Pierce BCA protein assay kit per manufacturer's instructions (Cat#23225. Thermofisher Scientific, Rockford, Ill.).\nLysates was analyzed in conjuncture with the LI-COR Odyssey™ infra-red imaging system. […]"}, "[3]": {"test_system": "S6 Ribosomal Protein (S235/236) in primary hippocampal neurons", "test": "S6 Ribosomal Protein (S235/236) phosphorylation in primary hippocampal neurons", "type": "cell-based, mouse", "conditions": "1 μg/ml TIMP3, 15 mins", "protocol": "as §1, with “Calif.).” for “Calif.). 2 pups were used per well and cell suspensions were incubated for 10 minutes per well for a total of 6 wells. The serial incubation allowed for variation in cell densities applicable to different experiments but also contributed to the reduction in non-neuronal cells.”\nas §2, with “software. […]” for “software.”\nLysates was analyzed in conjuncture with the LI-COR Odyssey™ infra-red imaging system. […] After further wash steps images were obtained using a LI-COR™ Odyssey scanner and quantified using LI-COR™ Image Studio software. […]"}, "[4]": {"target": "MMP-9 (Homo sapiens, UniProt P14780)", "sequence (P14780 94-707, species assumed)": "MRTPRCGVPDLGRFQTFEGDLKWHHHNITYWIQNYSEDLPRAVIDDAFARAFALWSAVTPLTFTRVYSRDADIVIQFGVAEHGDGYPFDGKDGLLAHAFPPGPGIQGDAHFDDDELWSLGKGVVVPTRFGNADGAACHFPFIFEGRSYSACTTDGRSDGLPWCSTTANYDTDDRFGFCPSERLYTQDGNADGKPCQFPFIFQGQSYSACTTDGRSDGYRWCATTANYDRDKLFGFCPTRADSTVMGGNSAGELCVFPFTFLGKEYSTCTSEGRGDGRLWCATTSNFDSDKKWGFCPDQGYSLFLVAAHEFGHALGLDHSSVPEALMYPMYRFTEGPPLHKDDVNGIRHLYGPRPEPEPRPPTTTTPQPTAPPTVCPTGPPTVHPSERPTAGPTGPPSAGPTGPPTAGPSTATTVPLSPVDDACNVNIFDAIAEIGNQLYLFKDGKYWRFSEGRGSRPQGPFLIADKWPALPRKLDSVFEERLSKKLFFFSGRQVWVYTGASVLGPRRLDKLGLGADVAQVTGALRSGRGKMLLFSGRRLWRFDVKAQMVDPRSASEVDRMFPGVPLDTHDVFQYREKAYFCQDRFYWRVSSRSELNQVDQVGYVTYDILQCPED", "test": "SensoLyte Fluorimetric MMP-9 Activity Assay", "type": "biochemical", "conditions": "dose response; 1 μg/ml TIMP3", "description": "SensoLyte Fluorimetric MMP-2 Activity Assay Kit™ (Cat#71151) and SensoLyte Fluorimetric MMP-9 Activity Assay Kit™ (Cat#71155) were purchased from AnaSpec (Fremont, Calif.) and performed per manufacturer's instructions."}}}
{"molecule": "B1", "values": [{"measurement": "NeuN staining, contralateral side", "setting": "[1]", "value": "no significant differences on the contralateral side"}, {"measurement": "NeuN+ve neurons in the hilus, ipsilateral", "setting": "[1]; IV TIMP3 vs TBI", "value": "significantly attenuated the loss of NeuN+ve cells"}, {"measurement": "S6 Ribosomal Protein (S235/236) activation, western blot", "setting": "[2]", "value": "activates S6 Ribosomal Protein (S^235/236)"}, {"measurement": "S6 Ribosomal Protein (S235/236) phosphorylation, antibody array", "setting": "[2]", "value": "phosphorylates mTORC1 pathway target S6 Ribosomal Protein (S^235/236)"}, {"measurement": "S6 Ribosomal Protein (S235/236) activation, western blot", "setting": "[3]", "value": "activates S6 Ribosomal Protein (S^235/236)"}, {"measurement": "S6 Ribosomal Protein (S235/236) phosphorylation, antibody array", "setting": "[3]", "value": "phosphorylates mTORC1 pathway target S6 Ribosomal Protein (S^235/236)"}, {"measurement": "MMP-9 inhibition (Sensolyte FRET assay)", "setting": "[4]", "value": "can fully inhibit"}]}
